Assay [1] addresses Cynomolgus monkey TSLP (expressed in HEK293 cells) (cynomolgus monkey). Description: SPR, BIAcore T100, TSLP immobilised on CM5, antibody injected, bivalent analyte model, room temperature. On the technique in general: Surface plasmon resonance follows binding to a sensor surface in real time, without labels.
In assay [2] the target is Recombinant human TSLP (expressed in HEK293 cells) (human) (UniProt Q969D9). The assay is described as above.
For assay [3] the target is unchanged. Description: KinExA 3000, solution equilibrium, 25 °C, particles coated with biotinylated human TSLP. A general note: In KinExA the mixture passes briefly over coated beads that capture the unbound partner.
Assay [4] concerns the target Human TSLP purchased from R&D and expressed in E. coli (human) (UniProt Q969D9). Nature of the assay: cell-based or functional assay.
Assay [5] addresses Cynomolgus monkey TSLP (expressed in HEK293 cells) (cynomolgus monkey). Description: cell-based or functional assay.
In assay [6] the target is Recombinant human TSLP (expressed in HEK293 cells) (human) (UniProt Q969D9). Nature of the assay: cell-based or functional assay.
Assay [7] has as its target T1, Human TSLP purchased from R&D and expressed in E. coli (human, UniProt Q969D9 29-159).
T1 construct: Bought preparation; also called human (R&D)*; hTSLP*
Nature of the assay: SPR, BIAcore T100, R&D E. coli TSLP immobilised on CM5, antibody injected, bivalent analyte model, room temperature.

Assay [8] has as its target T2, Cynomolgus monkey TSLP (expressed in HEK293 cells) (cynomolgus monkey, UniProt A0A7N9CAT7 29-159).
T2 construct: also called cyno TSLP; cTSLP
Description: SPR, BIAcore T100, TSLP immobilised on CM5, antibody injected, bivalent analyte model, room temperature.

Assay [9] has as its target T2, Cynomolgus monkey TSLP (expressed in …). Description: SPR, BIAcore T100, TSLP immobilised on CM5, antibody injected, bivalent analyte model, 37 °C.
Assay [10] addresses T3, Recombinant human TSLP (expressed in HEK293 cells) (human, UniProt Q969D9 29-159).
T3 construct: In KinExA a biotinylated form coated the particles and the unlabelled form was in solution; also called hu TSLP; hTSLP
Description: KinExA 3000, solution equilibrium, 25 °C, particles coated with biotinylated human TSLP.

Assay [11] deals with T1, Human TSLP purchased from R&D and …. Nature of the assay: SPR, BIAcore T100, R&D E. coli TSLP immobilised on CM5, antibody injected, bivalent analyte model, 37 °C.
Assay [12] deals with T3, Recombinant human TSLP (expressed in …). Nature of the assay: cell-based or functional assay.
The target of assay [13] is T1, Human TSLP purchased from R&D and …. Description: cell-based or functional assay.
Assay [14] addresses T2, Cynomolgus monkey TSLP (expressed in …). Nature of the assay: cell-based or functional assay.

Several values for one entry are separate records, joined by “and”; a condition that tells them apart may be missing. Identical values can stand only once.

B1: Parental rat antibody 23B12 (antibody, from a related filing, V domains shown)
VH: EEKLQQSGDDLVRPGAAVKMSCKASGYIFTDYAMHWVKQRPGQGLEWIGTFIPLLDTSDYNQNFKGRATLTADKSSNTAYMELSRLTSEDSAVYYCARMGVTHSYVMDAWGQGASVTVSS
VL: DIVLTQSPATLSVTPGESVSLSCRASQPISISVHWFQQKSNESPRLLIKFASQSISGIPSRFSGSGSGTDFTLNINRVESEDFSVYYCQQTFSLPYTFGTGTKLELKR
As to B1, the Kd is 0.159 nM in assay [1]; 0.141 nM and 0.13 nM in [2]; 0.0011 nM in [3]. The EC 50, inhibition of TSLP-induced proliferation of Ba/F3-TSLPR-IL7Ra cells is 0.083 µg/mL in [4]; 0.064 µg/mL and 0.122 µg/mL and 0.054 µg/mL in assay [5]; 0.022 µg/mL and 0.025 µg/mL and 0.014 µg/mL in assay [6].

B2: Humanized anti hu TSLP mAb 23B12 (comprising the heavy chain of SEQ ID NO:11 and the light chain of SEQ ID NO:12 of the instant application) (antibody, human IgG1, kappa, V domains shown)
VH: QVQLVQSGAEVKKPGASVKVSCKASGYIFTDYAMHWVRQAPGQGLEWMGTFIPLLDTSDYAQKFQGRVTMTADTSTSTAYMELRSLRSDDTAVYYCARMGVTHSYVMDAWGQGTLVTVSS
VL: EIVLTQSPGTLSLSPGERATLSCRASQPISISVHWYQQKPGQAPRLLIYFASQSISGIPDRFSGSGSGTDFTLTISRLEPEDFAVYYCQQTFSLPYTFGQGTKVEIKR
notes: Vector deposited as ATCC PTA-10482; also called Antibody 4
For the molecule B2, the Kd was 0.339 nM in [7]; 0.138 nM and 0.08 nM and 0.115 nM and 0.127 nM in [8]; 0.381 nM in assay [9]; 0.0032 nM in assay [10]; 0.299 nM in assay [11]. For the same molecule, the “EC 50, inhibition of TSLP-induced proliferation of Ba/F3-TSLPR-IL7Ra cells” value in assay [12] is 0.041 µg/mL and 0.024 µg/mL; in [13] it was 0.137 µg/mL and 0.215 µg/mL; in assay [14], 0.117 µg/mL and 0.077 µg/mL and 0.158 µg/mL and 0.067 µg/mL.

The record behind these values is patent US20120219565A1 (Merck Sharp & Dohme, published 2012).
